{"source": "paper PMC2504300", "assay_in_all_cases": "filter binding", "key": {"[1]": {"biological_target": "T1, Grp (glutamine receptor protein) (Sulfolobus tokodaii strain 7, UniProt F9VNT4 1-150)", "T1 sequence": "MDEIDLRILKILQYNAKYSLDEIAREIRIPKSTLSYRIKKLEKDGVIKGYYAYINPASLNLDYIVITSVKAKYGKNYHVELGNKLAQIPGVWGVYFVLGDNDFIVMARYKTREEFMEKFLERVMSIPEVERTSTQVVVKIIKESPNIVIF"}, "Grp Y77A": {"biological_target": "T2, Grp Y77A (Sulfolobus tokodaii strain 7, UniProt F9VNT4 1-150, Y77A)", "T2 sequence": "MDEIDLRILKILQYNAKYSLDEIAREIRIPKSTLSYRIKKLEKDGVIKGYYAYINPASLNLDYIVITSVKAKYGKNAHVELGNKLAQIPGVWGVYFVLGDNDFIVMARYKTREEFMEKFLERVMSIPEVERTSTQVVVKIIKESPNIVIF"}, "[2]": {"biological_target": "T1, Grp (glutamine receptor protein)", "remark": "listed apart in the source"}, "Grp S32A": {"biological_target": "T3, Grp S32A (Sulfolobus tokodaii strain 7, UniProt F9VNT4 1-150, S32A)", "T3 sequence": "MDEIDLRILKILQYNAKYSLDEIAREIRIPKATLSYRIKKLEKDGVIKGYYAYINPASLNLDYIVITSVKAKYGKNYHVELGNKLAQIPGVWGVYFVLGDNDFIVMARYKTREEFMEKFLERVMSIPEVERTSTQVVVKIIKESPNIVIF"}}, "data": [{"binder": "111-bp grp promoter (dsDNA) DNA 1: CGTATCTTCCAAAGATTATAAGCGATTTTTTGTAAGTCTTTTTTTATTATAAGTGTTGATTAGATATAATTCAAAGTAAAGGCTTATATTTTTGTTTATAATATACAGTCT DNA 2: AGACTGTATATTATAAACAAAAATATAAGCCTTTACTTTGAATTATATCTAATCAACACTTATAATAAAAAAAGACTTACAAAAAATCGCTTATAATCTTTGGAAGATACG", "values": [{"measurement": "binding result", "setting": "[1]", "result": "binds"}]}, {"binder": "18-bp grp promoter fragment (dsDNA) DNA 1: ATATTTTTGTTTATAATA DNA 2: TATTATAAACAAAAATAT", "values": [{"measurement": "binding result", "setting": "Grp Y77A", "result": "no binding"}, {"measurement": "Kd", "setting": "[2]", "result": "188 ± 1", "unit": "nM"}, {"measurement": "binding signal", "setting": "Grp S32A", "result": "~5 fold lower binding than wild type"}]}]}
